Reference: US20190328837A1 (Stanford University, published 2019)
One block for each binder: values may come before it.

Columns and labels:
wild-type CNTFR-HIS [1] = molecular target: T1, wild-type CNTFR-HIS (human, UniProt P26992 23-342); experiment: flow cytometry, yeast-displayed CLCF1 construct, soluble CNTFR-HIS titrated, anti-HIS Hilyte Fluor 488 detection
T1 construct: also called wtCNTFR-HIS; HIS tagged CNTFR; not shown: HIS tag
T1 sequence: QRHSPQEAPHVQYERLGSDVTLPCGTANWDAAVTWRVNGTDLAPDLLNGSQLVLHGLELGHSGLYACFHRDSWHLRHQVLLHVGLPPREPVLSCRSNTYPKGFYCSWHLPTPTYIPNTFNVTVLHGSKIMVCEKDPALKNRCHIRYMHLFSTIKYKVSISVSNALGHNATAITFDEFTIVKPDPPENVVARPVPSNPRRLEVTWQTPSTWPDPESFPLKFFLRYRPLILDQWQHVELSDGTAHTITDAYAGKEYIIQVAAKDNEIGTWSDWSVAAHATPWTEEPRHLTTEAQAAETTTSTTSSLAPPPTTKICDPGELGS
Procedure: (§1) Using equilibrium binding conditions and screened by flow cytometric sorting (FACS), high throughput screening of the CLCF1 library using wtCNTFR-HIS was performed to enrich variants showing increased CLCF1 binding. Expression signal was used to normalize CNTFR binding to distinguish high expressers from high affinity binders. Screening stringency was increased throughout sorting by decreasing the concentration of wtCNTFR-HIS incubated with the library. […] Thus a variant containing the three mutations (named FRR-CLCF1) was chosen for further characterization (FIG. 7).
(§2) Yeast displaying CLCF1 constructs were incubated with varying concentrations of CNTFR for 12 h at room temperature to reach equilibrium binding. This was followed by washing with BPBS and resuspension in PBSA with 1:500 ratio of chicken anti-c-Myc (Invitrogen) for 30 min at 4 C. Yeast were then washed and pelleted, and secondary labeling was performed on ice for 30 min using PBSA with 1:100 dilution of goat anti-chicken PE (Santa Cruz) and mouse anti-HIS Hilyte Fluor 488 (Anaspec). Then samples were washed and analyzed by flow cytometry using Accuri (BD Biosciences). Samples were analyzed on BD Bioscience software, and data were analyzed using FlowJo software. Kd values were determined by fitting to a four-parameter sigmoidal curve. Error bars represent the standard deviation of triplicate experiments.

wild-type CNTFR-HIS [2] = molecular target: T1, wild-type CNTFR-HIS; experiment: flow cytometry, yeast-displayed CLCF1 construct, soluble CNTFR-HIS titrated, apparent Kd from a four-parameter fit
Procedure: as §1, §2

wild-type CNTFR-HIS [3] = molecular target: T1, wild-type CNTFR-HIS; experiment: yeast surface display, equilibrium titration with CNTFR-HIS, flow cytometry (apparent Kd)
Procedure: as §1, §2

wild-type CNTFR-Fc [4] = molecular target: T2, wild-type CNTFR-Fc (human, UniProt P26992 23-342); experiment: sandwich ELISA, soluble CLCF1 titrated against 2 nM CNTFR-Fc, anti-mouse-Fc capture, anti-CLCF1 detection
T2 construct: also called wtCNTFR-Fc; not shown: Fc domain; captured with anti-mouse Fc antibody
T2 sequence: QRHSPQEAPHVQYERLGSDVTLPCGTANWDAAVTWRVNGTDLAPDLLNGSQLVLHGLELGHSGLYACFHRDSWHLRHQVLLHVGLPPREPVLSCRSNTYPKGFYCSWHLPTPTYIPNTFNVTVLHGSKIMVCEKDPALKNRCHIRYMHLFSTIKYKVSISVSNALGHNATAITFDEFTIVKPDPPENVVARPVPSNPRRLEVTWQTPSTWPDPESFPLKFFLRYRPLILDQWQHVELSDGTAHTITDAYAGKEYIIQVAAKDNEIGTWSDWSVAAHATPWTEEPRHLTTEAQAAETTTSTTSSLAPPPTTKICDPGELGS
Procedure: (§3) The CLCF1 variants isolated from screening were cloned into the pET28b bacterial expression plasmid and expressed and purified. […] A sandwich ELISA was performed using an anti-mouse Fc antibody as a capturing agent for wtCNTFR-Fc, followed by an anti-CLCF1 antibody as a detection agent for the bound complex. […] ELISA was also used to measure binding interactions with the gp130 and LIFR beta receptors.
(§4) To measure the solution-phase binding interaction between the CLCF1 constructs and CNTFR, different concentrations of soluble, recombinant CLCF1 variants and wtCLCF1 were incubated with 2 nM CNTFR-Fc in BPBS for 12 h at room temperature. The mixture was then added to 96-well plates coated with anti-mouse-Fc antibody for 1 h followed by washing with BPBS twice. Subsequently, the wells were incubated with 1:1000 diluted anti-CLCF1 rabbit antibody for 2 h at room temperature then washed four times with BPBS. The wells were incubated with a 1:1000 diluted HRP conjugated anti-rabbit antibody for 2 h at room temperature, and washed four times with BPBS. 1-Step Ultra TMB ELISA was used for the readout, which was measured using a plate reader (Tecan).

wild-type CNTFR-Fc [5] = molecular target: T2, wild-type CNTFR-Fc; experiment: cell-free ELISA, HIS-tagged soluble CLCF1 titrated against 2 nM CNTFR-Fc, anti-HIS capture, HRP anti-mouse detection
Procedure: 96-well plates were coated with 10 μg/mL of anti-HIS antibody overnight and blocked with 5% milk for 1 h. The plates were then washed twice with BPBS. Different concentrations of soluble constructs of HIS-tagged CLCF1 variants were incubated with 2 nM CNTFR-Fc in BPBS for 12 h at room temperature. The mixture was then added to 96-well plates coated with anti-HIS antibody for 1 h followed by washing with BPBS twice. Subsequently, the wells were incubated with 1:1000 diluted HRP conjugated anti-mouse antibody for 1 h at room temperature then washed four times with PBS. 1-Step Ultra TMB ELISA (Thermo Fisher Scientific) was used for the readout detected using a plate reader (Tecan).

wild-type CNTFR-Fc [6] = molecular target: T2, wild-type CNTFR-Fc; experiment: sandwich ELISA, soluble CLCF1 titrated against 2 nM CNTFR-Fc, apparent Kd
Procedure: as §3, §4

wild-type CNTFR-HIS [7] = molecular target: T1, wild-type CNTFR-HIS; experiment: flow cytometry, yeast-displayed CLCF1 construct, soluble CNTFR titrated
wild-type CNTFR-HIS [8] = molecular target: T1, wild-type CNTFR-HIS; experiment: flow cytometry, yeast-displayed CLCF1 construct, soluble CNTFR titrated, apparent Kd

B1: v2 (ligand)
CLCF1 variant displayed on yeast as Aga2p fusion with c-myc tag: LNRTGDPGPGPSIQKTYDLTRYLEHQLRSLAGTYLNYLGPPFNEPDFNPPRLGAETLPRATVDLEVWRSLNDKLRLTQNYEAYSHFLCYLRGLNRRAATAELRRSLAHFCTSLQGLLGSIAGVMAALGYPLPQPLPGTEPTWTPGPAHSDFLQKMDDFWLLKELQTWLWRSAKDFNRLKKKMQPPAAAVTLHLGAHGF
- EC50 (read off the curve) (wild-type CNTFR-HIS [1]): ~4 nM
- Kd (wild-type CNTFR-HIS [2]): 3.1 nM

B4: recombinant soluble wild-type human CLCF1 (ligand)
chain: LNRTGDPGPGPSIQKTYDLTRYLEHQLRSLAGTYLNYLGPPFNEPDFNPPRLGAETLPRATVDLEVWRSLNDKLRLTQNYEAYSHLLCYLRGLNRQAATAELRRSLAHFCTSLQGLLGSIAGVMAALGYPLPQPLPGTEPTWTPGPAHSDFLQKMDDFWLLKELQTWLWRSAKDFNRLKKKMQPPAAAVTLHLGAHGF
notes: Expressed in E. coli from pET28b and purified from inclusion bodies by RP-HPLC; also called wtCLCF1; wild-type CLCF1
- EC50 (read off the curve) (wild-type CNTFR-Fc [4]): ~80 nM
- EC50 (read off the curve) (wild-type CNTFR-Fc [5]): ~80 nM

B5: v2 (ligand)
soluble CLCF1 variant: LNRTGDPGPGPSIQKTYDLTRYLEHQLRSLAGTYLNYLGPPFNEPDFNPPRLGAETLPRATVDLEVWRSLNDKLRLTQNYEAYSHFLCYLRGLNRRAATAELRRSLAHFCTSLQGLLGSIAGVMAALGYPLPQPLPGTEPTWTPGPAHSDFLQKMDDFWLLKELQTWLWRSAKDFNRLKKKMQPPAAAVTLHLGAHGF
- Kd (wild-type CNTFR-Fc [6]): 2.3 nM
- EC50 (read off the curve) (wild-type CNTFR-Fc [4]): ~2 nM

B10: v1 (ligand)
soluble CLCF1 variant: LNRTGDPGPGPSIQKTYDLTRYLEHQLRSLAGTYLNYLGPPFNEPDFNPPRLGAETLPRATVDLEVWRSLNDKLRLTQNYEAYSHLLCYLRGLNRRAATAELRRSLAHFCTSLQGLLGSIAGVMAALGYPLPQPLPGTEPTWTPGPAHSDFLQKMDDFWLLKELQTWLWRSAKDFNRLKKKMQPPAAAVTLHLGAHGF
- Kd (wild-type CNTFR-Fc [6]): 6.6 nM
- EC50 (read off the curve) (wild-type CNTFR-Fc [4]): ~6 nM

B11: v3 (ligand)
CLCF1 variant displayed on yeast as Aga2p fusion with c-myc tag: LNRTGDPGPGPSIQKTYDLTRYLEHQLRSLAGTYLNYLGPPFNEPDFNPPRLGAETLPRATVDLEVWRSLNDKLRLTQNYEAYSHFLCYLRGLNRRAATAELRRSLAHFCTSLQGLLGSIAGVMAALGYPLPQPLPGTEPTWTPGPARSDFLQKMDDFWLLKELQTWLWRSAKDFNRLKRKMQPPAAAVTLHLGAHGF
- Kd (wild-type CNTFR-HIS [8]): 0.28 nM

B13: v3 (ligand)
soluble CLCF1 variant: LNRTGDPGPGPSIQKTYDLTRYLEHQLRSLAGTYLNYLGPPFNEPDFNPPRLGAETLPRATVDLEVWRSLNDKLRLTQNYEAYSHLLCYLRGLNRRAATAELRRSLAHFCTSLQGLLGSIAGVMAALGYPLPQPLPGTEPTWTPGPARSDFLQKMDDFWLLKELQTWLWRSAKDFNRLKKKMQPPAAAVTLHLGAHGF
- Kd (wild-type CNTFR-Fc [6]): 2.5 nM
- EC50 (read off the curve) (wild-type CNTFR-Fc [4]): ~2 nM

B14: v2 (ligand)
CLCF1 variant displayed on yeast as Aga2p fusion with c-myc tag: LNRTGDPGPGPSIQKTYDLTRYLEHQLRSLAGTYLNYLGPPFNEPDFNPPRLGAETLPRATVDLEVWRSLNDKLRLTQNYEAYSHFLCYLRGLNRRAATAELRRSLAHFCTSLQGLLGSIAGVMAALGYPLPQPLPGTEPTWTPGPARSDFLQKMDDFWLLKELQTWLLRSAKDFNRLKKKMQPPAAAVTLHLGAHGF
- Kd (wild-type CNTFR-HIS [8]): 0.22 nM

Now from value to binder:

- Kd (wild-type CNTFR-HIS [3]): 3.1 nM
B2: yeast-displayed CLCF1 variant L86F (ligand)
chain: LNRTGDPGPGPSIQKTYDLTRYLEHQLRSLAGTYLNYLGPPFNEPDFNPPRLGAETLPRATVDLEVWRSLNDKLRLTQNYEAYSHFLCYLRGLNRRAATAELRRSLAHFCTSLQGLLGSIAGVMAALGYPLPQPLPGTEPTWTPGPAHSDFLQKMDDFWLLKELQTWLWRSAKDFNRLKKKMQPPAAAVTLHLGAHGF

- Kd (wild-type CNTFR-HIS [3]): 4.2 nM
B3: yeast-displayed CLCF1 variant H148R (ligand)
chain: LNRTGDPGPGPSIQKTYDLTRYLEHQLRSLAGTYLNYLGPPFNEPDFNPPRLGAETLPRATVDLEVWRSLNDKLRLTQNYEAYSHLLCYLRGLNRRAATAELRRSLAHFCTSLQGLLGSIAGVMAALGYPLPQPLPGTEPTWTPGPARSDFLQKMDDFWLLKELQTWLWRSAKDFNRLKKKMQPPAAAVTLHLGAHGF

- EC50 (read off the curve) (wild-type CNTFR-HIS [7]): ~0.1 nM
- Kd (wild-type CNTFR-HIS [8]): 0.06 nM
B6: yeast-displayed CLCF1 variant with Y22C, L86F, Q96R, H148R, W169L, K180R (ligand, not shown: large carriers; small tags and cut ends)
chain: LNRTGDPGPGPSIQKTYDLTRCLEHQLRSLAGTYLNYLGPPFNEPDFNPPRLGAETLPRATVDLEVWRSLNDKLRLTQNYEAYSHFLCYLRGLNRRAATAELRRSLAHFCTSLQGLLGSIAGVMAALGYPLPQPLPGTEPTWTPGPARSDFLQKMDDFWLLKELQTWLLRSAKDFNRLKRKMQPPAAAVTLHLGAHGF
notes: also called the resulting variant (five consensus mutations combined with Y22C)

- EC50 (read off the curve) (wild-type CNTFR-HIS [7]): ~1 nM
- Kd (wild-type CNTFR-HIS [8]): 0.83 nM
- EC50 (read off the curve) (wild-type CNTFR-HIS [1]): ~1 nM
B7: yeast-displayed FRR-CLCF1 (L86F, Q96R, H148R) (ligand, not shown: large carriers; small tags and cut ends)
chain: LNRTGDPGPGPSIQKTYDLTRYLEHQLRSLAGTYLNYLGPPFNEPDFNPPRLGAETLPRATVDLEVWRSLNDKLRLTQNYEAYSHFLCYLRGLNRRAATAELRRSLAHFCTSLQGLLGSIAGVMAALGYPLPQPLPGTEPTWTPGPARSDFLQKMDDFWLLKELQTWLWRSAKDFNRLKKKMQPPAAAVTLHLGAHGF
notes: also called the variant with all three mutations

- EC50 (read off the curve) (wild-type CNTFR-HIS [7]): ~0.4 nM
- Kd (wild-type CNTFR-HIS [8]): 0.08 nM
B8: v4 (ligand)
CLCF1 variant displayed on yeast as Aga2p fusion with c-myc tag: LNRTGDPGPGPSIQKTYDLTRYLEHQLRSLAGTYLNYLGPPFNEPDFNPPRLGAETLPRATVDLEVWRSLNDKLRLTQNYEAYSHFLCYLRGLNRRAATAELRRSLAHFCTSLQGLLGSIAGVMAALGYPLPQPLPGTEPTWTPGPARSDFLQKMDDFWLLKELQTWLLRSAKDFNRLKRKMQPPAAAVTLHLGAHGF
notes: The five consensus mutations without Y22C

- Kd (wild-type CNTFR-HIS [8]): 0.18 nM
B9: v5 (ligand)
CLCF1 variant displayed on yeast as Aga2p fusion with c-myc tag: LNRTGDPGPGPSIQKTYDLTRCLEHQLRSLAGTYLNYLGPPFNEPDFNPPRLGAETLPRATVDLEVWRSLNDKLRLTQNYEAYSHFLCYLRGLNRRAATAELRRSLAHFCTSLQGLLGSIAGVMAALGYPLPQPLPGTEPTWTPGPARSDFLQKMDDFWLLKELQTWLWRSAKDFNRLKKKMQPPAAAVTLHLGAHGF

- Kd (wild-type CNTFR-HIS [3]): 7.9 nM
- EC50 (read off the curve) (wild-type CNTFR-HIS [1]): ~6 nM
B12: yeast-displayed CLCF1 variant Q96R (ligand, not shown: large carriers; small tags and cut ends)
chain: LNRTGDPGPGPSIQKTYDLTRYLEHQLRSLAGTYLNYLGPPFNEPDFNPPRLGAETLPRATVDLEVWRSLNDKLRLTQNYEAYSHLLCYLRGLNRRAATAELRRSLAHFCTSLQGLLGSIAGVMAALGYPLPQPLPGTEPTWTPGPAHSDFLQKMDDFWLLKELQTWLWRSAKDFNRLKKKMQPPAAAVTLHLGAHGF
